{"source": "patent US7799901B2", "about": "“Modulators of the function of FAS receptors and other proteins” (Yeda Research and Development Co. Ltd., priority 1995, dated 2010)", "target": "T1, FAS-IC (Homo sapiens, UniProt P25445)", "T1 construct": "the FAS-IC extends-from amino acid residues 175-319 of the intact FAS-R; expressed in transfected cells; host or cells: SFY526 yeast", "T1 sequence (P25445 191-335)": "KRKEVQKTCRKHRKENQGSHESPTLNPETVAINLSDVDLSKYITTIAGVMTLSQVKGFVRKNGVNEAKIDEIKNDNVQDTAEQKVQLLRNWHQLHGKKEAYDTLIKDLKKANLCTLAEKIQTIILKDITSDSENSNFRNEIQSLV", "assay": "Two-hybrid test of MORT-1 binding (FIG. 1), human Fas-IC", "settings": "transfected SFY526 yeasts", "source_text": "To isolate proteins interacting with the intracellular domain of the FAS-R, the yeast two-hybrid system was used (Fields and Song, 1989). […] In this system, the genes for the candidate interacting proteins are cloned into separate expression vectors. In one expression vector, the sequence of the one candidate protein is cloned in phase with the sequence of the GAL4 DNA-binding domain to generate a hybrid protein with the GAL4 DNA-binding-domain, and in the other vector, the sequence of the second candidate protein is cloned in phase with the sequence of the GAL4 activation domain to generate a hybrid protein with the GAL4-activation domain. The two hybrid vectors are then co-transformed into a yeast host strain having a lacZ or HIS3 reporter gene under the control of upstream GAL4 binding sites. Only those transformed host cells (cotransformants) in which the two hybrid proteins are expressed and are capable of interacting with each other, will be capable of expressing the reporter gene. In the case of the lacZ reporter gene, host cells expressing this gene will become blue in color when X-gal is added to the cultures. […]\nIn FIG. 1, there is depicted the interaction of the proteins encoded by the Gal4 DNA binding domain and activation-domain constructs (pGBT9 and pGAD-GH) within transfected SFY526 yeasts as assessed by β-galactosidase expression filter assay. […]"}
{"molecule": "MORT-1: Mediator of Receptor-induced Toxicity; protein binding the intracellular domain of FAS-R, SEQ ID NO:2 (protein) VNQAPECRFGGGILGPLGKRRDLARASEPRTEGARRAGPQPRPLADPAMDPFLVLLHSVSSSLSSSELTELKFLCLGRVVKRKLERVQSGLDLFSMLLEQNDLEPGHTELLRELLASLRRHDLLRRVDDFEAGAAAGAAPGEEDLCAAFNVICDNVGKDWRRLARQLKVSDTKIDSIEDRYPRNLTERVRESLRIWKNTEKENATVAHLVGALRSCQMNLVADLVQEVQQARDLQNRSGAMSPMSWNSDASTSEAS", "values": [{"measurement": "binding to human Fas-IC in two-hybrid test", "value": "binds"}]}
